Drawing on a protein production outcome set (Wang et al. 2014), this text covers protein production for 19 sequences.
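Note: failed if final PepcDB status was selected cloned or expressed and not failed if soluble or beyond.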

The nature of the series: label from the status in PepcDB records.
Regarding “MEQHHVRSLLKPSAYPDPTGSVELVQTHVSYIFLTDNFAYKVKKPVDFGFLNFSTPDRRRFYCEEEVRLNRRLCPDIYLGVAEVRDTPAGAAFVGEGQVIDHAVKMKRLPADRMLDRLLSAGLAGEPEIRAVARVVGTFHLEAEHSSEIDAFGDLATINANWVENFQQTRPYCGITLSAGDHDFIRGWVERFMAERVDLFAARVGDGRIRDGNGDIHMENICLGADGRVCIFDCIEFNNRFRYGDTAADIAFLLMDFDFVLRPDLGAAFLDEYTRITNDASVVEMIDFYKVYRAFVRGKVESMRLSDPQIPENEKQAAAARASRYFRLARGYAVRQGLPPTLFITCGLTGTGKSRLSRELSLDLGLEIASSDVVRKELAGLRSTERPDQDYGAGIYTDRFSLLTYGELERRARVALEGGRSIVVDATFRRRADRERFGALARDAGATFVILHAVCPEPTIRSRLNSRQKDRSEPSDGTWEVYLRQKDEFDPPSDQEGNLLCIDTSDTASAMVDKVLHGLELLPCGKS”, the protein production result was “failed”.

In the case of “MPAIEVGETFTETRTFRPEDVDQFTALSGDDQPRHTEPDGDGRRMVQGLLTASLLTSIGGDLEVLASRMDLQFQRPVYTGETLVCELTVVSADPHTDGGVALVGDVAVRRVNRDDNSGQADTAAPNSADSAPAGTVVLEATVEGLIRE”, the protein production result is “failed”.

As to “MDVTGKSLKRILLSLAVFCILITGPGIACAEEATTQEKEILFSDYFKSMMDMAQDKYKGEITEKQMLEGALKGIFSTMDSYTVYYTVEESQDFFTDINGSYTGIGVVMSEVDGKIVIDKVYPSSPAEEAGIKKGDVIAQVDGKSVENLSLEEVAGLIKGPSGTKVVIGVLRNGTDGVIELEVTRRQIIINPVTHKIEGDIGYIKLESFNSNASKAMEEALKQMDKNNIKKIILDLRDNPGGDVGQAVSIARKFVKKGLITKLDFKSESQKDEEYYSYLEELKYKLVVLVNENSASASEILAGAIQDTGSGILVGTTTFGKGKVQNLYPILTPEAVEKYRKETGETFVNGYDLLEKHGIYPSDEEIIGWVKITTGEYYTPNGRMIDGVGLEPDVYVENEPEGKYKILEGVEKLRKVTKPSLNAQSEDVLNAEKILSALGYDVDTPDNLMDEKTVKAVAEFQRDCGLYSYGVLDFATQQALNDKLDELLLVKNRDKQYEKAVELLEN”, the protein production entry is on record as “failed”.

“MMGDYGITEEDLVIEEAQGYPRAYTKICRDFDAFPYKNGPPFTFMPYILQQNESLRCREVDQMFPVIDPKARPTTKPKIFLSLLWKQLNHLGNAGFDPAVIRIDPYGNVVYFHADSASPLAWSFDHWFPCSRGGLTVPSNLRIVQWQARKNKKDKLEFLVPWWDLQVGISVNQFLSIFAASSSDFRYR”: the protein production entry is “failed”.

Consider “MNVINETANVLKLETGSVTSAKGFSAVGIHTGVKRKRKDLGAIVCEVPASSAAVYTLNKVQAAPLKVTQESIAVEGKLQAMIVNSGIANACTGKRGLDDAYTMRAVGAETFHIPEHYVAVTSTGVIGEFLPMDVITNGIRQLKPEATIEGAHAFNEAILTTDTVEKHTCYQTIVNGKTVTVGGVAKGSGMIHPNMATMLSFVTTDANIDHGHLQGALSAITNETFNRITVDGDTSTNDMVVVMASGLAENEALTPEHPDWANFYKALQLACEDLAKQIARDGEGATKLIEVEVTGAANDQEAGMVAKQIVGSDLVKTAIYGADANWGRIICAIGYSGCEVNQETIDIAIGPIVTLKQSEPTGFSEEEATAYLKEADPVKISVNLHIGNGTGKAWGCDLTYDYVRINAGYRT”, for which the protein production entry is “not failed”.

For “MNQMQGRLVAGRYRLGEAIGSGGMGRVWRAHDEVLHRTVAIKELTAALYVSESDQAILLARTRGEARAAARINHSAVVTVHDVLEHDGRPWIVMELVEGRSLADAVKEEERVDPREAARVGLWVLRALRAAHTAGVLHRDVKPGNVLLADDGRVLLTDFGIAQIEGDSTITRTGEVVGSVDYLAPERVRGHDPGPSSDLWALGATLYTAVEGRSPFRRTSPLTTMQAVVEEEATEPRYAGALAPVISALLRKDPAERPDATEAEHLLAQAAEGRRPDAAQAYVPTTRYEGPPRAGDTAVQGMPAGGSGATPYPQAGGSGATPYPPTTGPTGAGPAPTGHTRGGYTQVGHTEGGYTAPGYAPAPAVGGAAPGRARRVRMRTLALVVAVAALIGAGTAVVLHQRDEGGSSAGADPTQGPTGSAAPSPSPSASATTGKGPGGSVPADWTRRDDPLGFSLYLPENWQRRDFDGDSGELRQIDYTPDGGNHVLRISVDTAPDYNDPYAHQQDLDAQLLQRLVDYRRVKLERAGYRDRDSARWEYTWTALAKDTEFPGPRRAVSQMYMSRDGVEYALNMTGPAGDWPTTQRRFKAVLQGWQEETG”, the protein production result was “failed”.

As for “MISKAISAQCRHLHRAAVLVAVMSALAATGCSKKEAPQAPAPSAGTPQAGAPAAMPEGMSGQQQTAMGRAIFNKRCASCHGTDGNGAGSRSGPALDQAQFKYGRTPEAIRESIVKGRPNGMPAFGAAFQEIEIDTLVGYVMGLTKQ”, the protein production entry is “failed”.

For “MTTTGHVHFYIGTYTNPPSTSTSTGIARLSLNTETGELTRLDDVVVQRNPSYLTTTEHGLYTFSEMDRNEGTELAFFRGSESVSLPINGDYPCHLDIKEPLLAVANYGSGNVSVFQLDRDGKPLGLLADLYVDGCGPNLERQTSPHAHQVTFLKHSHQLVVVDLGSDSVLIYDYDAQPPDFSLSQVIHLPAGSGPRHVVFNQQESTAYVVCELSETLIVLVKHQDKWLISNQTELLEGEENQQAAAAIRLSQDETFLYVSCRAQNKISMFDVSGDTPKRRAAIHCEGVFPRDFVLSHDQKWLLVANQHSNNVVSFRRNPQTGEITPTGYDCEIGSPVCIVEQPLLEHHHHHH”, the protein production entry is “failed”.

“MVDSHVHTPLCGHAEGHPEAYLEEARAKGLKGVVFTDHSPMPPWYDPESRMRLEALPFYLLALERVRERAQDLYVGIGLEADFHPGTEGFVAQLLRRYPFDYVIGSVHYLGAWPLDHPDHQEEYAWRDLKEVFRAYFQEVEKAARSGLFHAIGHLDLPKKFGHRLPEEALLELAEPALRAVAEAGLFLDVNTAGLRRPAKEVYPAPALLRRARELGIGLVLGSDAHRPEEVGFAFPEVQALLAGLGFREAYYFVEGSPVAYPLSRASLEHHHHHH”: the protein production result is “not failed”.

As for “MSSVPRFWRNLGSRYNLEGTRCKECGEYFYPPRNVCVNCRRMGELEPFKFKGTGEIVSYTLIHTGAEGFEGQAPYTLAIIKLDEGPRLTSQVVGNTDNIQIGTRVRSVFRKLGEDGERGMIYYGTKFVPVDALEHHHHHH”, the protein production entry is “not failed”.

Turning to “SLSTVELSGTVVKQGYLAKQGHKRKNWKVRRFVLRKDPAFLHYYDPSKEENRPVGGFSLRGSLVSALEDNGVPTGVKGNVQGNLFKVITKDDTHYYIQASSKAERAEWIEAIKKLT”, the protein production entry is on record as “not failed”.

Take “MTENEFLSQEEIDKLLSDSDTGGVLTPEEKDMIGEIGNIAMGSAATTLSMILGRDIHITVPTVREEKMKNVKSDFSGEQVVVSVEYTEGLEGLNVLVLDKKLVAVIADLMMGGSGEVETEELDEIKLSAVGEAMNQMMGSAATSLSELLGITINISPPKVEI”: the protein production result is “not failed”.

Regarding “AIEVEKNNKGINLSFDIEFYPNSFQILQKEYKKIDLIAKLLEKFKKNNILIEGHTEQFGLEEEMHELSEKRARAIGNYLIKMKVKDKDQILFKGWGSQKPKYPKSSPLKAKNRRVEITILN”, the protein production entry is on record as “not failed”.

As to “PMNGKEKAASYDKVVDVDVKLGQVSVKNPKGTAHEMPKTFTFDAVYDWNAKQFELYDETFRPLVDSVLQGFNGTIFAYGQTGTGKTYTMEGIRGDPEKRGVIPNSFDHIFTHISRSQNQQYLVRASYLEIYQEEIRDLLSKDQTKRLELKERPDTGVYVKDLSSFVTKSVKEIEHVMNVGNQNRSVGATNMNEHSSRSHAIFVITIECSEVGLDGENHIRVGKLNLVDLAGSERQAKTGAQGERLKEATKINLSLSALGNVISALVDGKSTHIPYRDSKLTRLLQDSLGGNAKTVMVANVGPASYNVEETLTTLRYANRAKNIKNKPRVNEDPKDAL”, the protein production result is on record as “failed”.

As to “MGISPPLTAVSAFGTDVSGNAFIGAGVATLAVLMVLSAFFSSSEIAMFSIPRHRIDALVEEGRSGADAVAALKSDPHRLLITILVGNNLVNIAMSSIATGLFATSMSQGKAVLAATFGVTALVLLFGESAPKSYAVENSESWALSIAKPLQWSERFLYPLVVLFDYLTRAVNQFTGGRAAIESSYVTRSEIQDMIKTGEREGVIEEDEREMLQRIFRFNNTIAKEVMTPRLDVVAVSKTDTIEAAIQTCTQAGHERVPVYDGELDNVIGVVSLEDLVRESLYGETEDAELDDLIEPTLHVPESKNVDDLLQEMQDERVQLVVVIDEFGTTEGLLTAEDITEEIVGEILDGGEDLPIDSVDEDTVRVRGEVNIEEVNEALNIDLPEGEEFETIAGFIFNRAGRLVEEGEAFRFEDIELTVEHVENTRIMKARVQRLDSAAEADANAEVLTADSTGNGA”, the protein production result is listed as “failed”.

For “MTKSKIIEIGPLVPAFEEEKIVILFGPTATNELREISVIHEFEAAPQSALSKGNTLQIGDQVYIIEEVGTEANKNLEELGHISIYFRSGQNEVLPGAIVVSPEVFPTLAIGDTIQF”, the protein production result is reported as “failed”.

For the sequence “MAQARCGGELLGLRAVLCVPPCPMPRLLPLTLLLLAAAAHAQSAAPLTIEQAMADPDWIGPSVDQAWWQWDGKQVQYLLKRAGSPVRDTYRQSTAGGTAERVADTARAGLDAANPSYDATRQRMLFARNGDIFLRDLRSGALTQLTRSNEIESRPQFASDGGAIWRAGNNWYHWRADGGTAQVAVVKAERDPDAAPKPDVLREHQLATLATLRRDKEQRDALRTQDDAWRRADATRAAAPVYLGDEVEIVDSALSPDGRHLLVVTQATNAEEGQAGKMPKYVTESGYEEFQEVRTRVGRNASVAHALWLVDVSAGTAKSLSFDPLPGIATDPLAALRKAAKRDALKGNRAVRVESNGDGSGPAVHWSDDGRNVAVEIRAVDNKDRWIASVDLDNAKLQPRHRLSDSAWINWDFNDFGWLPDNRTLWLLSEESGYSQLYTMEGNSKPRQRTRGKWEVSMPVPSADGSGMFFLCNQKWPGDYEVCKLDLRNDQLTEVTALNGVEGFSLSPNGQQLLVSYSGSYLPTQLAVVPATGGQATVLTDTRTPAFKAQPWIAPQYVQVPSKHGAGTVWGKYYGPTTPEPGKQYPIVMFVHGAGYLQNVSERYTPYFREQMFHNLLVQQGYIVLDLDYRASRGYGRDWRTAIYRNMGHTELEDYLDGLDWLVATKQGDRARAGIYGGSYGGFMTYMALFRSPGTFKAGAALRPVGDWMQYNHEYTSNILNTPELDPEAYKTSSPINYAEGLRDHLLIAHGMIDDNVFFKDSVDMTQKLMELHKDNWQLALYPLERHGFTRADSWLDEYKRILKLFNAQVKP”, the protein production result is listed as “failed”.

With “MKVIKSNKVTNKFKVSILISTYNKEKFIENTLNNILAQTMNKNDFELIIVDDCSTDNTLDIISKKIESFSNYQFVQLDENSGTPAKPRNLSIDLSKGKYIMFVDGDDWLPSDALENLYTLLKSNKTDYATGLTKYVYSDRIARSGVALSKIAYNKIGLKNFRKSFYHLAPAGRMMKSSVIKKNNIRFPEMIFGEDLQFFAEVFFNTKNISTTQDVVYCANRYDENISLVKSEASTVLNRIKWQNEAYRYLTKKYKNNKIFANLLYRIINKDILEGKFYKKGFIKEIDTLLPVFQDILNTIDNDFNSLDYADDTLNQHALTLIKNGDKEEIIDFVNFYLKKDEKPLYLSNDKYYYVYKENKYKKRMHIILQKIIKKDENIFLKLYSKNSELKYLEIKNRKDPTNYTVLEIKKHLFKTGEYTVQFKANELSKGKLALTVLDKDLNGAAIKSGMQFDFYETVNGNLGYIKKLEHHHHHH”, the protein production entry was “not failed”.

Take “MSLTADTKRPLTLRDVSEASGVSEMTVSRVLRNRGDVSDATRARVLAAAKELGYVPNKIAGALASNRVNLVAVIIPSLSNMVFPEVLTGINQVLEDTELQPVVGVTDYLPEKEEKVLYEMLSWRPSGVIIAGLEHSEAARAMLDAAGIPVVEIMDSDGKPVDAMVGISHRRAGREMAQAILKAGYRRIGFMGTKMPLDYRARKRFEGFTEVLGKNGVEIEDREFYSGGSALAKGREMTQAMLERSPDLDFLYYSNDMIAAGGLLYLLEQGIDIPGQIGLAGFNNVELLQGLPRKLATMDACRLEIGRKAAEIIAKRLEDPEAEIETRITLEPKISYGDTLKREGHHHHHH”: the protein production result is on record as “not failed”.
